Test results: patent US20110166081A1 (UNIVERSITY OF IOWA RESEARCH FOUNDATION, published 2011)

Biological target: T1, mouse integrin alpha7beta1 from digitonin-solubilized skeletal muscle (mouse, UniProt Q61738 34-1135; P09055 21-801, limits assumed)
T1 construct: also called integrin α7β1; alpha7beta1 integrin
Assay: WGA lectin affinity chromatography and sucrose gradient fractionation of digitonin-solubilized muscle, immunoblot
Text: Characterization of skeletal muscle dystroglycan and integrin α7 complexes. Sucrose gradient fractionation of the DGC and the integrin α7 complex from wild-type (A, C), DG-deficient (B) and integrin α7-null (D) skeletal muscle solubilized with digitonin. Glycoprotein preparations enriched by WGA-chromatography were fractionated by sucrose gradient centrifugation. Equal volumes of fractions were loaded on an SDS-PAGE gel. The blot generated from this was probed with antibodies against: integrin α7 (α7), integrin β1(β1), α-DG (α-DG), α-sarcoglycan (α-SG), β-sarcoglycan (β-SG) and γ-sarcoglycan (γ-SG).
Lectin affinity chromatography and sucrose gradient fractionation. Total muscle homogenates in TBS (50 mM Tris-Cl pH 7.4, 150 mM NaCl) were solubilized with 1% digitonin. After centrifugation at 140,000×g for 37 min, solubilized proteins in the supernatant were mixed with wheat germ agglutinin (WGA)-agarose beads (Vector Laboratories) and rotated end-over-end at 4° C. for 2 hours. WGA-bound proteins were eluted with TBS containing 0.3 M N-acetyl-D-glucosamine and 0.1% digitonin. The eluant was applied to a 5-30% sucrose gradient and centrifuged at 215,000×g for 90 min. Fractions (1 ml) were collected from the top of the gradient and analyzed by SDS-PAGE.

T1 sequence (Q61738 other isoform, or with tags, fused parts or gaps limits assumed, chain 1 of 2): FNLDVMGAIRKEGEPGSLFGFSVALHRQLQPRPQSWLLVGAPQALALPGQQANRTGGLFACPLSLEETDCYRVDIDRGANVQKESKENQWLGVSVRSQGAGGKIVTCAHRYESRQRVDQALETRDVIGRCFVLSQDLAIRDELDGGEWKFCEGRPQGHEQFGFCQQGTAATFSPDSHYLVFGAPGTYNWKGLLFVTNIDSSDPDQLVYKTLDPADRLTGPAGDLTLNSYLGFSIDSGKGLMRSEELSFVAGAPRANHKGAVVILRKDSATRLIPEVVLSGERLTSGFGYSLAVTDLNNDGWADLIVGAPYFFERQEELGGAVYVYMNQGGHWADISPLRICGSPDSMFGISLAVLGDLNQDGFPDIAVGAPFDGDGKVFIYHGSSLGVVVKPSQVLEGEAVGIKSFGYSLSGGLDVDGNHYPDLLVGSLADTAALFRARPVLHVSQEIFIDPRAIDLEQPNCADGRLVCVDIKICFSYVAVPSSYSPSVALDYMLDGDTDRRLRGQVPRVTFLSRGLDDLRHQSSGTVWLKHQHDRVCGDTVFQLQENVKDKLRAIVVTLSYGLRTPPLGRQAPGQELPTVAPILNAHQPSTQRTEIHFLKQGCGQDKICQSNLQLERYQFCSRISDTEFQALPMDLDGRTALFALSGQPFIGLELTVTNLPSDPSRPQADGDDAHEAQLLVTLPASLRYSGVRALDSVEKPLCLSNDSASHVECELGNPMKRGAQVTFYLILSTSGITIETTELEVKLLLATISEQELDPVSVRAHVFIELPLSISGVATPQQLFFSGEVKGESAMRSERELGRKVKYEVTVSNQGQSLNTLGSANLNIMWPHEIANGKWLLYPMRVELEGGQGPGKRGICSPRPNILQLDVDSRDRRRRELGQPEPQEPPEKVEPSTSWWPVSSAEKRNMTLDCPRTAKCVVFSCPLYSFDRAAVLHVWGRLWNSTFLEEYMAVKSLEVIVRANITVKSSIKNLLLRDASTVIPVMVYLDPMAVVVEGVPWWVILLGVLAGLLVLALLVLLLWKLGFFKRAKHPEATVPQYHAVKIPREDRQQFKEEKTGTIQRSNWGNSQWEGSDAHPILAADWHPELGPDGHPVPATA
T1 sequence (P09055 other isoform, or with tags, fused parts or gaps limits assumed, chain 2 of 2): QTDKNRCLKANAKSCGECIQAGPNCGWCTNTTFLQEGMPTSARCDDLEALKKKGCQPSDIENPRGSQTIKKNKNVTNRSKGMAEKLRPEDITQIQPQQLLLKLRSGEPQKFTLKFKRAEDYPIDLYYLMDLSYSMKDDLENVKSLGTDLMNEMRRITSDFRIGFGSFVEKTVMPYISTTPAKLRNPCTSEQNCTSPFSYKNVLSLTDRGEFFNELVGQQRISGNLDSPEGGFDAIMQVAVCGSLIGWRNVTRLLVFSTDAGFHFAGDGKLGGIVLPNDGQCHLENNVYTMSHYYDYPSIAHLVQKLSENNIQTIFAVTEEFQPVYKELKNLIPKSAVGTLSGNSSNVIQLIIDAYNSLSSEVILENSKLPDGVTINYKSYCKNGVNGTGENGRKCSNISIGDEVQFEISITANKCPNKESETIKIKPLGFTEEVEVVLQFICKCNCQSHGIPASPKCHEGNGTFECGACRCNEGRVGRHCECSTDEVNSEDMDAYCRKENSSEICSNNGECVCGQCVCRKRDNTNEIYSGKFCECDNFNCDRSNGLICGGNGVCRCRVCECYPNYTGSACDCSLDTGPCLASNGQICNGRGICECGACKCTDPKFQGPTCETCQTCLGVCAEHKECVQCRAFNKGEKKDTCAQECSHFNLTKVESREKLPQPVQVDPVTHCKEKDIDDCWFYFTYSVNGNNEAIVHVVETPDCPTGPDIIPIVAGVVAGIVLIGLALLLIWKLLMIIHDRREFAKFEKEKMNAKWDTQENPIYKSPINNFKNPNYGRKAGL

binding result: no binding
B1: mouse dystroglycan from digitonin-solubilized skeletal muscle (receptor)
chain 1: HWPSEPSEAVRDWKNQLEASMHSVLSDFQEAVPTVVGIPDGTAVVGRSFRVSIPTDLIASSGEIIKVSAAGKEALPSWLHWDPHSHILEGLPLDTDKGVHYISVSAARLGANGSHVPQTSSVFSIEVYPEDHNEPQSVRAASSDPGEVVPSACAADEPVTVLTVILDADLTKMTPKQRIDLLNRMQSFSEVELHNMKLVPVVNNRLFDMSAFMAGPGNAKKVVENGALLSWKLGCSLNQNSVPDIRGVETPAREGAMSAQLGYPVVGWHIANKKPTLPKRLRRQIHATPTPVTAIGPPTTAIQEPPSRIVPTPTSPAIAPPTETMAPPVRDPVPGKPTVTIRTRGAIIQTPTLGPIQPTRVSEAGTTVPGQIRPTLTIPGYVEPTAVITPPTTTTKKPRVSTPKPATPSTDSSTTTTRRPTKKPRTPRPVPRVTTKAPITRLETASPPTRIRTTTSGVPRGGEPNQRPELKNHIDRVDAWVGTYFEVKIPSDTFYDNEDTTTDKLKLTLKLREQQLVGEKSWVQFNSNSQLMYGLPDSSHVGKHEYFMHATDKGGLSAVDAFEIHVHKRPQGDKAPARFKARLAGDPAPVVNDIHKKIALVKKLAFAFGDRNCSSITLQNITRG
chain 2: SIVVEWTNNTLPLEPCPKEQIIGLSRRIADENGKPRPAFSNALEPDFKALSIAVTGSGSCRHLQFIPVAPPSPGSSAAPATEVPDRDPEKSSEDDVYLHTVIPAVVVAAILLIAGIIAMICYRKKRKGKLTLEDQATFIKKGVPIIFADELDDSKPPPSSSMPLILQEEKAPLPPPEYPNQSMPETTPLNQDTVGEYTPLRDEDPNAPPYQPPPPFTAPMEGKGSRPKNMTPYRSPPPYVPP
notes: Native protein, WGA-enriched, within the dystrophin-glycoprotein complex; also called DG; DGC
